In US20210292393A1 (published 2021):
Changes are numbered by the printed parent chain.

B1: antibody 456 (antibody, V domains shown)
VH: QVQLQQWGAGLLKPSETLSLTCAVYGGSFSGYYWSWIRQPPGKGLEWIGEINHSGSTNYNPSLKSRVTISVDTSKNQFSLKLSSVTAADTAVYYCARDGSGSYYLSYYFDYWGQGTLVTVSS
VL: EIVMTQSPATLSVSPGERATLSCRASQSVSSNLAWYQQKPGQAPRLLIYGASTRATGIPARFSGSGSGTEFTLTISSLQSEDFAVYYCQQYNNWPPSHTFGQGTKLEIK
B2: antibody 446 (antibody, V domains shown)
VH: QVQLVESGGGVVQPGRSLRLSCAASGFTFSSYAMHWVRQAPGKGLEWVAVISYDGSNKYYADSVKGRFTISRDNSKNTLYLQMNSLRAEDTAVYYCARPNSGSYFGYFQHWGQGTLVTVSS
VL: QSVLTQPPSVSGAPGQRVTISCTGSSSNIGAGYDVHWYQQLPGTAPKLLIYGNSNRPSGVPDRFSGSKSGTSASLAITGLQAEDEADYYCQSYDSSLSGFYVFGTGTKVTVL
B3: antibody 439 (antibody, V domains shown)
VH: B2 VH with N100P, S101R, S103G, Y104S, F105Y, G106Y, Y107P, Q109D, H110P
VL: not shown
B4: antibody 454 (antibody, V domains shown)
VH: QVQLVQSGAEVKKPGASLKVSCKASGYIFTGYYMHWVRQAPGQGLEWMGWISPNSGGTKYAQKFQGRVTMTRDTSISTAYMELSRLRSDDSAVYYCAREPYYDILTGYYTPRRYLDYWGQGTLVTVSS
VL: QSALTQPASVSGSPGQSITISCTGTSSDVGDYNYVSWYQQHPGKVPKLMIYDVSHRPSGVTNRFSGSKSGNTASLTISGLRAEDEADYYCSSYTSSSTYVFGTGTKVTVL
B5: antibody 423 (antibody, V domains shown)
VH: EVQLVESGGGLIQPGGSLRISCAASGFTVRNNHMSWVRQAPGKGLEWVSVFYRGGTTYYADSVKGRFTISRDDSKNTVDLQMNSLRGEDTAVYYCARGLSVAASGYFDCWGQGTLVTVSS
VL: DIQMTQSPSSVSASVGDTVTITCRANQGISSWLAWYQQVPGKAPELLIYATSTLQSGVPSRFSGSGSGTDFTLTISSLQPEDFATYYCQQANSFPFTFGPGTKVDIK
B6: antibody 422 (antibody, V domains shown)
VH: QVQLVQSGSELKKPGASVKVSCKASGYTFTSYAMNWVRQAPGQGLEWMGWINTNTGNPTYAQGFTGRFVFSLDTSVSTTYLQISSLKAEDTAVYYCARVIGVVTYYYYGMDVWGQGTTVTVSS
VL: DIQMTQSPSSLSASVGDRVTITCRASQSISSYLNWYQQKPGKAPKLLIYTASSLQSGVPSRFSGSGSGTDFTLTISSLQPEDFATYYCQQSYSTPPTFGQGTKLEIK
B7: antibody 431 (antibody, V domains shown)
VH: QVQLVESGGGVVQPGRSLRLSCAASGFTFSSYAMHWVRQAPGKGLEWLAVISYDGSNKYYADSVKGRFTISRDNSKNTLYLQMNSLRAEDTAVYYCARSFRGGYYYGMDVWGQGTTVTVSS
VL: DIQLTQSPSFLSASVGDRVTITCRASQGISSYLAWYQQKPGKAPKLLIYAASTLQSGVPSRFSGSGSGTEFTLTISSLQPEDFATYYCQQLNSYPLFTFGPGTKVDIK
B8: antibody 421 (antibody, V domains shown)
VH: QVQLVESGGGVVQPGRSLRLSCAASGFTFSTYAMHWVRQAPGKGLEWVAVISYDGSNKYYADSVKGRFTISRDNSKNTLYLQMNSLRAEDTAVYYCARGYGSGSYYPLYLYWGQGTLVTVSS
VL: not shown
B9: antibody 559 (antibody, V domains shown)
VH: QVQLQESGPGLVKLSETLSLTCTVSGYSISSGYYWGWIRQPPGKGLEWIGSIYHSGSTYYNPSLKSRVTISVDTSKNQFSLKLSSVTAADTAVYYCAREETLGSSWYESYIDYWGQGTLVTVSS
VL: SYVLTQPPSVSVAPGKTARITCGGNNIGSKSVHWYQQKPGQAPVLVIYYDSDRPSGIPERFSGSNSGNTATLTISRVEAGDEADYYCQVWDSSSDHPRVFGGGTKLTVL
B10: antibody 465 (antibody, V domains shown)
VH: QITLKESGPTLVKPTQTLTLTCTFSGFSLSTSGVGVGWIRQPPGKALEWLALIYWDDDKHYSPSLKSRLTITKDTSKNQVVLTMTNMDPVDTATYYCAHMYYDILSGYYYGMDVWGQGTTVTVSS
VL: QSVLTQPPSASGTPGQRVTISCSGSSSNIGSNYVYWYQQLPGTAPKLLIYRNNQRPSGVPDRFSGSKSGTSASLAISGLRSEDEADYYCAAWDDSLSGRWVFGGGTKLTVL
B11: antibody 372 (antibody, V domains shown)
VH: QVQLVESGGGVVQPGRSLRLSCAASGFTFSSYAMHWVRQAPGKGLEWVAVISYDGSNKYYADSVKGRFTISRDNSKNTLYLQMNSLRAEDTAVYYCARDLGTSALLWFGELFLNYGMDVWGQGTTVTVSS
VL: QSALTQPRSVSGSPGQSVTISCTGTSSDVGGYNYVSWYQQHPGKAPKLMIYDVSKRPSGVPDRFSGSKSGNTASLTISGLQAEDEADYYCCSYAGSPILVFGGGTKLTVL
B12: antibody 405 (antibody, V domains shown)
VH: not shown
VL: B11 VL with P97Y, I98N, L99V
B13: antibody 378 (antibody, V domains shown)
VH: QVQLVQSGAEVKKPGASVKVSCKASGYTFTSYYMHWVRQAPGQGLEWMGIINPSGGSTSYAQKFQGRVTMTRDTSTSTVYMELSSLRSEDTAVYYCARDSGGMDDFWSGYYSPGGDYWGQGTLVTVSS
VL: QSALTQPASVSGSPGQSITISCTGTSSDVGSYNLVSWYQQHPGKAPKLMIYEGSKRPSGVSNRFSGSKSGNTASLTISGLQAEDEADYYCCSYAGSSTWVFGGGTKLTVL
B14: antibody 385 (antibody, V domains shown)
VH: B2 VH with M34I, N100R, F105W, Y107A, Q109D, H110I, L116M
VL: QSVLTQPPSVSGAPGQRVTISCTGSSSNIGARYDVHWYQQLPGTAPKLLIYGNSNRPSGVPDRFSGSKSGTSASLAITGLQAEDEADYYCQSYDSSLRGVFGGGTKLTVL
B15: antibody 395 (antibody, V domains shown)
VH: QVQLVQSGSELKKPGASVKLSCQASGYTFSNHAMNWVRQAPGQGLEWMGWINTNTGNPTYAQGFTGRFVFSLDTSVGTAYLHISSLKAEDTAFYYCARASARPGVATNLDFWGQGTLVVVSS
VL: DIQMTQSPSSLSASVGDRVTITCRTSQNIDNYLNWYQQKPGKAPNLLIYAASRLHSGVPSRFSGSGSGTDFTLIISSLQPEDLATYYCQQSYSNPLTFGPGTKVDIR
B16: antibody 367 (antibody, V domains shown)
VH: B4 VH with L18V, I28T, M34I, S52N, K59I, R87T, S91T, Y95S, T110A, L115F
VL: B4 VL with D31S, Q39L, V45A, H55N, T61S, R81Q, Y88F, S96R
B17: antibody 409 (antibody, V domains shown)
VH: QVTLRESGPALVKPTQTLTLTCTFSGFSLSTSGMCVSWIRQPPGKALEWLALIDWDDDKYYSTSLKTRLTISKDTSKNQVVLTMTNMDPVDTATYYCARTTYYYVSGRRAEFDPWGQGTLVTVSS
VL: NFMLTQPHSVSESPGKTVTISCTGSSGSIASNYVQWYQQRPGSAPTTVIYEDNQRPSGVPDRFSGSIDSSSNSASLTISGLKTEDEADYYCQSYDSSNQGVFGGGTKLTVL

Biological target: SARS-CoV-2 full length spike protein, V483A mutant (SARS-CoV-2, UniProt P0DTC2 14-1273)

Row | Binder | median fluorescence fold over isotype control [fold over isotype]
1 | B1 | 8.16
2 | B2 | 6.16
3 | B3 | 9.01
4 | B4 | 19.7
5 | B5 | 15.3
6 | B6 | 15.2
7 | B7 | 11.7
8 | B8 | 9.33

Biological target: SARS-CoV-2 full length spike protein, D614G mutant (SARS-CoV-2, UniProt P0DTC2 14-1273)

Row | Binder | median fold over isotype [fold over isotype]
9 | B9 | 49.5

Biological target: SARS-CoV-2 full length spike protein, D614G mutant, expressed on CHO cells (SARS-CoV-2, UniProt P0DTC2 14-1273)

Row | Binder | median fluorescence intensity, fold over isotype control [fold over isotype]
10 | B10 | 68.3

Biological target: SARS-CoV-2 full length spike protein, V483A mutant, expressed on CHO cells (SARS-CoV-2, UniProt P0DTC2 14-1273)

Row | Binder | median fluorescence fold over isotype control [fold over isotype]
11 | B11 | 18.1
12 | B12 | 7.51
13 | B13 | 14.3
14 | B14 | 8.16
15 | B15 | 8.92
16 | B16 | 16.3
17 | B17 | 9.21

Biological target: SARS-CoV-2 full length spike protein, V367F mutant (SARS-CoV-2, UniProt P0DTC2 14-1273)

Row | Binder | median fold over isotype [fold over isotype]
18 | B9 | 25.4

Biological target: SARS-CoV-2 full length spike protein, V367F mutant, expressed on CHO cells (SARS-CoV-2, UniProt P0DTC2 14-1273)

Row | Binder | median fluorescence intensity, fold over isotype control [fold over isotype]
19 | B10 | 37.3
